Earlier results on two substances are cited in paper PMC11820047.

By Kd is commonly meant the equilibrium constant for the complex coming apart.

Data set [1] concerns the target EGFR (Homo sapiens) (UniProt P00533).
Data set [2] shares this target. This is another data set of the same source.

Like-named read-outs stand apart in the source and are kept apart here.

With EGF (from UniProt P01133), in the data set with EGFR (Homo sapiens) [1], the equilibrium dissociation constant (Kd) was 2 nM.

With GE11, in the data set with EGFR (Homo sapiens) [2], the equilibrium dissociation constant (Kd) was 22 nM.
